Experimental data as given in PMC10527606.

Key:
[1] = target: humanized 5c8 (hu5c8) (human (humanized antibody)); assay: SPR
TNX-1500 (human) = assay: SPR

| Substance | Kd [1] | Kd (TNX-1500 (human)) |
| --- | --- | --- |
| FcγRIIbF (from UniProt P31994 43-217) (receptor) | 970 nM |  |
| FcγRIIIaF (from UniProt P08637 17-208) (receptor) | 1700 nM |  |
| FcγRIIaH (from UniProt P12318 34-217) (receptor) | 510 nM | 7100 nM |

Stronger by Kd [1], values ahead:

| Kd [1] | Kd (TNX-1500 (human)) | Substance |
| --- | --- | --- |
| 330 nM |  | FcγRIIIaV (from UniProt P08637 17-208) (receptor) |
| 0.033 nM | 8.7 nM | FcγRIa (from UniProt P12314 16-292) (receptor) |
